Data set [1] has as its target human N-cadherin naturally expressed on DX3 melanoma cells (human) (UniProt P19022). As to the kind of experiment: adhesion of DX3 cells to coated monomeric N-cadherin-Fc, in oxidising buffer and in 10 mM DTT.
Data set [2] has as its target T1, human N-cadherin naturally expressed on DX3 melanoma cells (human, UniProt P19022 160-906).
T1 construct: also called DX3 Cells; N-cadherin+ve DX3 melanoma cells
T1 sequence: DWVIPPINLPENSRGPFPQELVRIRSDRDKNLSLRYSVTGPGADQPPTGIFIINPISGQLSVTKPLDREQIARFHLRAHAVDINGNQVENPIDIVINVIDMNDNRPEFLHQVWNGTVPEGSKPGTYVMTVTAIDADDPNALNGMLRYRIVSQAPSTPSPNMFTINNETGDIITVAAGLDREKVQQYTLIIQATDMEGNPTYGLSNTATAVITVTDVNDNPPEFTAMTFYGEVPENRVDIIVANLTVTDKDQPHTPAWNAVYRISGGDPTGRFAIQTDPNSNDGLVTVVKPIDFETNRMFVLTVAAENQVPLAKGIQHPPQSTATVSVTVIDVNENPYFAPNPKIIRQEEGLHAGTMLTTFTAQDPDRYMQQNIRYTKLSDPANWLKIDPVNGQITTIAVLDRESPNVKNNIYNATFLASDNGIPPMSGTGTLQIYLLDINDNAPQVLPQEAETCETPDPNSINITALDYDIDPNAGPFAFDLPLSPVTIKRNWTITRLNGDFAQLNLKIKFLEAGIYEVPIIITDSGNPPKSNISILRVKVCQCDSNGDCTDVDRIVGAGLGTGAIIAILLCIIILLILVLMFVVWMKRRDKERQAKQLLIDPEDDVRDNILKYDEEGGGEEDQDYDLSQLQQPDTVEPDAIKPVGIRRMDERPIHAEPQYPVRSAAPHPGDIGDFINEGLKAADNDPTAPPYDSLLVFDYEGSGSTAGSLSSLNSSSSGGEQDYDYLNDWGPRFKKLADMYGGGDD
The experiment in a line: adhesion of DX3 cells to coated monomeric N-cadherin-Fc, oxidising buffer. As to the method: Monomeric or dimeric N-cadherin-Fc fusion protein in Cos cell supernatants was added as described for the ELISA assay. DX3 Cells, a human melanoma cell line which expresses N-cadherin, were dissociated with Cell Dissociation Solution (Sigma, code C5789), resuspended in HBSS with 2% FCS and assessed for adhesion to wild type or mutant N-cadherin-Fc as previously described (Corps et al., 2001). Microscopic examination established that the cells were present as a single cell suspension as they settled onto the plate. For assays conducted in reducing conditions, 10 mM DTT was present during the adhesion and washing steps. Determinations were conducted in triplicate and results are presented as mean +/−sem.

Data set [3] concerns the molecule itself. As to the kind of experiment: disulphide-bonded cis-dimers in the coating layer; non-reducing SDS-PAGE and immunoblot. As to the method:
(§1) Monomeric N-cadherin-Fc (1 μg/ml) bearing the three alternative cysteine point mutations, D1C, R25C or D27C, was immobilised on 96-well plates with goat antihuman IgG Fe as previously described for E-cadherin-Fc (Corps et al., 2001). Unbound cadherin was removed by washing with HBSS, 0.1% BSA, followed by HBSS alone. The plates were not blocked with additional protein. K562 transfectants expressing N-cadherin bearing complementary or non-complementary point mutations (6×10^4 Cells in 100 μl HBSS containing 10 mM DTT), in single cell suspension, were added to the coated wells which contained 100 μl HBSS. The final concentration of DTT was therefore 5 mM DTT during the adhesion stage. The cells were allowed to settle for 10 min at room temperature before incubation at 37° C. for 30 minutes to complete adhesion. […] Adherent cells from a pool of 4 wells for each experimental condition were then solubilised in sample buffer for SDS-PAGE and analysed on NuPAGE Novex gradient gels, 3-8% or 4-12%, (Invitrogen), under nonreducing or reducing conditions. Cellular cadherin was detected by immunoblotting using rabbit pan anti-cadherin antiserum specific for the cytoplasmic domain. Alternatively, N-cadherin-Fc fusion protein was detected with rabbit anti-human IgG, Fc-specific (Pierce, code 31142). […]

The target of data set [4] is T2, full length chicken N-cadherin with the mutation D1C expressed on K562 cells (chicken, UniProt P10288 165-912, D1C).
T2 construct: whole, on cells; also called D1C cells; K562 D1C
T2 sequence (looked up): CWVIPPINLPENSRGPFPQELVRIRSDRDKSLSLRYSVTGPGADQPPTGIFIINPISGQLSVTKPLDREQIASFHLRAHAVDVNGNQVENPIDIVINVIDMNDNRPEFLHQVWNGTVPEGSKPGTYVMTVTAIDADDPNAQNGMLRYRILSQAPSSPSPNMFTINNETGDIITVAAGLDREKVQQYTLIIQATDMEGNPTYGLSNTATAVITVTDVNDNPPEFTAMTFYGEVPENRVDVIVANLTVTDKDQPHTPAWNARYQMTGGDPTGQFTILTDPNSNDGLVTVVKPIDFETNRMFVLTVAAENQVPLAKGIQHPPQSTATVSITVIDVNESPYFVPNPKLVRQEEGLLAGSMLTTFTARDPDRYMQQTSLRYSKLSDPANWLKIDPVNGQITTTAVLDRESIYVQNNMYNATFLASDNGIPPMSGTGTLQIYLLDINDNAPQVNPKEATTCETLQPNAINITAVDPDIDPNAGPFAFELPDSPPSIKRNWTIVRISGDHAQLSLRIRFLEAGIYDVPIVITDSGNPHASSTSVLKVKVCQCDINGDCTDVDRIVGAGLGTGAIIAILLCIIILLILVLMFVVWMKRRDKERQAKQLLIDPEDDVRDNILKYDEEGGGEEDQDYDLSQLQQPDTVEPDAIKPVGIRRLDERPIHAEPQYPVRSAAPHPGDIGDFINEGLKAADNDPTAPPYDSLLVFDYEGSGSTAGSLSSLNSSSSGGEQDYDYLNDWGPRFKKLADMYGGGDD
As to the kind of experiment: Protein A Dynabeads coated with dimeric D27C N-cadherin-Fc mixed with K562 transfectants. As to the method:
(§2) In an alternative protocol, Dynabeads (Dynal) coupled to Protein A were coated with dimeric N-cadherin-Fc (1 μg/ml), bearing the mutation D27C, for 1 hour at room temperature in the presence of 0.1% Tween 20 and 4 mM EGTA (to prevent aggregation). The beads were then washed with HBSS. K562 transfectants expressing cell surface Ncadherin with the mutations D1C, R25C or D27C, were treated with 10 mM DTT for 15 minutes at 37° C., then washed and resuspended in HBSS without DTT. Cells ([…]) were mixed with 3 μl of beads coated with mutant N-cadherin-Fc in a final volume of 100 μl HBSS. Cells and beads were incubated together at room temperature for 2 hours with slow rotation to allow adhesion. Approximately five beads became attached to each cell and there was some clumping of attached and unattached beads. Iodoacetamide, 2 μl of 1.0M solution, was then added to alkylate free sulphydryl groups. The samples were then spun down at 1500 g and the cells were lysed in HBSS, 0.075% SDS, 1% NP40, 0.2 mM AEBSF, for 4 minutes on ice. Beads were then isolated with a magnet and washed twice with lysis buffer. Disulphide-bonded complexes between cellular cadherin and the Fc-fusion protein were analysed by SDS-PAGE and immunoblotting for cadherin cytoplasmic domain as described above. To ensure equal loading, membranes were stripped and re-assayed with anti-Human Fc.

Data set [5] concerns the target T3, full length chicken N-cadherin with the mutation R25C expressed on K562 cells (chicken, UniProt P10288 165-912, R25C).
T3 construct: whole, on cells; also called K562 R25C
T3 sequence (looked up): T2 sequence (looked up) with C1D, R25C
Described as above. Here is the method: as §2

The target in data set [6] is T4, full length chicken N-cadherin with the mutation D27C expressed on K562 cells (chicken, UniProt P10288 165-912, D27C).
T4 construct: whole, on cells; also called K562 D27C
T4 sequence (looked up): T2 sequence (looked up) with C1D, D27C
Described as above. Here is the method:
as §2

The target in data set [7] is T2, full length chicken N-cadherin with the …. As to the kind of experiment: cell adhesion to coated monomeric N-cadherin-Fc, then non-reducing SDS-PAGE and immunoblot. As to the method:
as §1

Residue numbers refer to the chain shown, from its start. Names may count otherwise.

Molecule “wild type monomeric chicken N-cadherin-Fc (mutations F405A and Y407A in the CH3 domain of Fc) (from UniProt P10288 165-729) (Fc fusion)” showed a % cells adhering in data set [1] of 65%.

B1: monomeric chicken N-cadherin-Fc with the mutation D1C (Fc fusion, UniProt P10288 165-728, looked up)
chain: CWVIPPINLPENSRGPFPQELVRIRSDRDKSLSLRYSVTGPGADQPPTGIFIINPISGQLSVTKPLDREQIASFHLRAHAVDVNGNQVENPIDIVINVIDMNDNRPEFLHQVWNGTVPEGSKPGTYVMTVTAIDADDPNAQNGMLRYRILSQAPSSPSPNMFTINNETGDIITVAAGLDREKVQQYTLIIQATDMEGNPTYGLSNTATAVITVTDVNDNPPEFTAMTFYGEVPENRVDVIVANLTVTDKDQPHTPAWNARYQMTGGDPTGQFTILTDPNSNDGLVTVVKPIDFETNRMFVLTVAAENQVPLAKGIQHPPQSTATVSITVIDVNESPYFVPNPKLVRQEEGLLAGSMLTTFTARDPDRYMQQTSLRYSKLSDPANWLKIDPVNGQITTTAVLDRESIYVQNNMYNATFLASDNGIPPMSGTGTLQIYLLDINDNAPQVNPKEATTCETLQPNAINITAVDPDIDPNAGPFAFELPDSPPSIKRNWTIVRISGDHAQLSLRIRFLEAGIYDVPIVITDSGNPHASSTSVLKVKVCQCDINGDCTDVDRIVGAGLGT
notes: extracellular domain; not shown: hinge region, CH2 and CH3 domains of human IgG1 heavy chain (vector pIgSig)
B1: the binding result in data set [2] and in data set [3] was “binds” in each case.

B2: chicken N-cadherin-Fc fusion protein with the mutation D27C, dimeric (conventional fusion protein dimerised via Fc), coated to Protein A magnetic beads (Fc fusion, UniProt P10288 165-728, looked up)
chain: B1 chain with C1D, D27C
notes: extracellular domain; also called dimeric N-cadherin-Fc D27C; D27C beads; not shown: hinge region, CH2 and CH3 domains of human IgG1 heavy chain (vector pIgSig)
Turning to B2, the “beads attached to each cell” value in data set [4], in data set [5] and in data set [6] was around 5 beads per cell each time.

B3: monomeric chicken N-cadherin-Fc with the mutation R25C (Fc fusion, UniProt P10288 165-728, looked up)
chain: B1 chain with C1D, R25C
notes: as for B1
Take B3: the binding result in data set [2] and in data set [7] was “binds” throughout.
